According to paper PMC9491697 (PNAS Nexus, 2022):
Values joined by “and” are separate entries in the source; they are usually repeats but may differ in a detail not shown here. Equal entries are not always repeated.

Columns and labels:
[1] = target: T1, human E-cadherin ectodomain EC1–5 with Twin-Strep and 8His tags (used for BLI) (Homo sapiens); assay: BLI; method taken from the construct description (E-cadherin used for BLI had an additional 8His tag); format and conditions not shown; details: both partners purified
T1 construct: the range counts on the precursor; also called E-cadherin used for BLI; source: Expi293, transfected, purified from culture supernatant (StrepTactin XT)
T1 chain: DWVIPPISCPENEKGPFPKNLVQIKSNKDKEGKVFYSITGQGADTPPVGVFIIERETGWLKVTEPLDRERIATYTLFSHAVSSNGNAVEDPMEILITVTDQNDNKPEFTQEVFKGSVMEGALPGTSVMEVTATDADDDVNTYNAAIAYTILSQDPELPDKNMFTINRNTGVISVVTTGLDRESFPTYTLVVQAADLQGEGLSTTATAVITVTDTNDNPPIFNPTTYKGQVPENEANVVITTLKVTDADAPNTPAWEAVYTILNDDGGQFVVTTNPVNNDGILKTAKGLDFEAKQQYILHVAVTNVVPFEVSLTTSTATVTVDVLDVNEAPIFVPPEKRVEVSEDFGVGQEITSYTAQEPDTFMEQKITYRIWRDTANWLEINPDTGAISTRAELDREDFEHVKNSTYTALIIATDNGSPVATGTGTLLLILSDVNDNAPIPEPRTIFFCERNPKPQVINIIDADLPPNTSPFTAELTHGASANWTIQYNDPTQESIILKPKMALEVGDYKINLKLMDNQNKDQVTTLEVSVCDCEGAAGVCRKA

[2] = target: T2, human E-cadherin EC1-5-TwinStrep-8His (Homo sapiens, UniProt P12830); assay: BLI; E-cadherin EC1-5-TwinStrep-8His loaded on Ni-NTA sensors; Fabs in a 1:3 dilution series; Octet Red96, 23°C, 1000 rpm; 50 mM Tris pH 8.0, 150 mM NaCl, 3 mM CaCl2, 0.25 mg/mL BSA, 0.005% Tween-20; 1:1 binding global fit; details: both partners purified
T2 construct: human E-cadherin extracellular domains EC1-5, residues 155 to 698; also called hEC1-5-TS-8His; hE-EC15-TS-8H; source: Expi293, transfected, purified from supernatant (StrepTactin XT); not shown: Twin-Strep, C-terminal, kept; 8His, C-terminal, kept

B1: 19A11 Fab (activating antibody to human E-cadherin) (Fab, V domains shown)
VH: QVQLKESGPGLVAPSQSLSITCTVSGFSLSRYGVHWVRQPPGKGLEWLGMMWGGGNTDYNSALKSRLSISKDNSKSQVFLKMNSLQTDDTAMYYCASSNYVLGYAMDYWGQGTSVTVSS
VL: DIVMTQSPSSLAMSVGQKVTMNCKSSQSLLNSSNQKNYLAWYQQKPGQSPKLLIYFTSTRGSGVPDRFIGSGSGTDFTLTISSVEAEDLADYFCQQHYRTPHTFGGGTKVEIK
notes: The 6His form was used for the crystal complex; Purified on a murine kappa light chain resin; also called 19A11-6His Fab; source: ExpiCHO, transfected, purified (CaptureSelect LC-kappa (mur) and Ni-NTA, or StrepTactin XT); ConA-cleared for crystallography
[1]
  Kd: ~6.5 nM

B2: 66E8 Fab (Fab, V domains shown)
VH: EVQLQQSGPELVKPGASVKISCKASGYSFTGYFMNWVKQSHGKSLEWIGRINPYNGDTFYKQRFKGKATLTVDKSSSTVHMDLLSLTSEDSAVYYCGRGNYYFDYWGQGTTLTVSS
VL: DVQITQSPSYLAASPGETITINCRTSKNISKYLAWYQEKPGKTNKLLIYSGYTLQSGIPSRFSGSGSGTDFTLTISSLEPEDFAMYYCQQHNEYPYTFGGGTKLEIK
notes: heavy chain of the 66E8 Fab in PDB 6VEL; light chain of the 66E8 Fab in PDB 6VEL; Fab as used in BLI and analytical SEC; source: ExpiCHO, transfected, purified
[2]
  Kd: 90.1 nM and 96.5 nM and 91.8 nM and 92.8 nM

B3: 66E8 Fab (activating antibody to human E-cadherin) (Fab, V domains shown)
VH: B2 VH
VL: B2 VL
notes: source: ExpiCHO, transfected, purified (CaptureSelect LC-kappa (mur) and Ni-NTA, or StrepTactin XT); kifunensine and Endo Hf for crystallography
[1]
  Kd: ~100 nM
